Laboratory results as given in patent publication US20230348603A1 (VERSEAU THERAPEUTICS, published 2023).
Changes are numbered by the printed parent chain. In names and notes the source's numbering stands.

T1: Cynomolgus Monkey VSIG4-L-His (cynomolgus monkey)
T1 construct: ECD with His tag; also called cyVSIG4-L; cyno VSIG4-L-His
T1 chain: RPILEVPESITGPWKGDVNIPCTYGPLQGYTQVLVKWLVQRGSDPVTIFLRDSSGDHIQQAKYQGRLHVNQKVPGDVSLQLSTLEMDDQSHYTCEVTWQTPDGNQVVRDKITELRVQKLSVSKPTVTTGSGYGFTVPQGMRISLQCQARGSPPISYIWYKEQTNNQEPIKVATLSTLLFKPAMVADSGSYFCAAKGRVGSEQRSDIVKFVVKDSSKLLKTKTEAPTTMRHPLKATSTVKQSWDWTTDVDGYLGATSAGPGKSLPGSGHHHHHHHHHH

T2: Human VSIG4-L-His (human, UniProt Q9Y279 20-283)
T2 construct: long isoform ECD with His tag; also called hVSIG4-L
T2 sequence: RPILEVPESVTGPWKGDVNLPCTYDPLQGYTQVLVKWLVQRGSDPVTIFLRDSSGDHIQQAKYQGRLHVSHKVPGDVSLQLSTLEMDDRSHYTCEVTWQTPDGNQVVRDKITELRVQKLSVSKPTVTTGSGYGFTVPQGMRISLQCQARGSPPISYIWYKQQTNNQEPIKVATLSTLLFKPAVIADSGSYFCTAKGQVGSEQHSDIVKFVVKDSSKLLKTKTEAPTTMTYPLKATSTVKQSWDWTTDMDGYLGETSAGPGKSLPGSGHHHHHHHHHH

B1: h14C05.E humanized IgG4 (S228P) kappa (antibody, V domains shown)
VH: QVQLVQSGAEVKKPGASVKVSCKASGYTFTNYGMNWVRQAPGQGLEWMGSINTYTGEATYADKFQGRVTMTLDTSTNTAYMELSSLRSEDTAVYYCARGDYYGRGTWFAYWGQGTLVTVSS
VL: ETVVTQSPATLSLSPGERATLSCRASQDVSTAVAWYQQKPGQAPRLLIYSASYRYPGIPARFSGSGSGTDFTLTISSLEPEDFAVYYCQQDYSSPWTFGGGTKLEIKR
B2: h16E10.C humanized IgG4 (S228P) kappa (antibody, V domains shown)
VH: QVQLVQSGAEVKKPGASVKVSCKASGYTFTNYWLGWVRQAPGQGLEWMGDIYPGGGYTNYNEKFQGRVTMTADTSTSTAYMELSSLRSEDTAVYYCAKFYYYGSSYYFDSWGQGTTVTVSS
VL: DIVMTQSPDSLAVSLGERATINCKSSQSLLNSGNQENYLAWYQQKPGQPPKLLIYGASTRESGVPDRFSGSGSGTDFTLTISSLQAEDVAVYYCQNDHSYPLTFGGGTKLEIKR
B3: h14C05.B humanized IgG4 (S228P) kappa (antibody, V domains shown)
VH: QVQLVQSGSELKKPGASVKVSCKASGYTFTNYGMNWVRQAPGQGLEWMGSINTYTGEATYADGFTGRFVFSLDTSVNTAYLQISSLKAEDTAVYYCARGDYYGRGTWFAYWGQGTLVTVSS
VL: ETQVTQSPSSLSASVGDRVTITCRASQDVSTAVAWYQQKPGKAPKLLIYSASYRYPGVPSRFSGSGSGTDFTLTISSLQPEDFATYYCQQDYSSPWTFGGGTKLEIKR
B4: h14C05.C humanized IgG4 (S228P) kappa (antibody, V domains shown)
VH: B1 VH
VL: B3 VL
B5: h14C05.D humanized IgG4 (S228P) kappa (antibody, V domains shown)
VH: B3 VH
VL: B1 VL
B6: h14C05.F humanized IgG4 (S228P) kappa (antibody, V domains shown)
VH: B3 VH with G63D, T65K
VL: B3 VL
B7: h14C05.G humanized IgG4 (S228P) kappa (antibody, V domains shown)
VH: B3 VH with D62Q, N77S
VL: B3 VL
B8: h14C05.H humanized IgG4 (S228P) kappa (antibody, V domains shown)
VH: B1 VH with D62Q, N77S, A79V
VL: B3 VL
B9: h14C05.A humanized IgG4 (S228P) kappa (antibody, V domains shown)
VH: B3 VH with Q1E, Q3M, V76A, Y95F
VL: B3 VL
B10: h14D12.A humanized IgG4 (S228P) kappa (antibody, V domains shown)
VH: QIQLVQSGSELKKPGASVKVSCKASGYTFTNYGMNWVRQAPGQGLEWMGLINTYTGEPTYADGFTGRFVFSLDTSASTAYLQISSLKAEDTAVYFCARERIYGYLHYFDYWGQGTTVTVSS
VL: DVVMTQSPDSLAVSLGERATINCKASQSVDYDGDSYMNWYQQKPGQPPKLLIYAASNLESGVPDRFSGSGSGTDFTLTISSLQAEDVAVYYCQQSNEDPRTFGGGTKLEIKR
B11: h14D12.B humanized IgG4 (S228P) kappa (antibody, V domains shown)
VH: QIQLVQSGAEVKKPGASVKVSCKASGYTFTNYGMNWVRQAPGQGLEWMGLINTYTGEPTYADKFQGRVTMTLDTSTSTAYMELSSLRSEDTAVYYCARERIYGYLHYFDYWGQGTTVTVSS
VL: B10 VL
B12: h14D12.C humanized IgG4 (S228P) kappa (antibody, V domains shown)
VH: B11 VH with M70F, T76A, Y95F
VL: B10 VL with L58R
B13: h14D12.D humanized IgG4 (S228P) kappa (antibody)
heavy: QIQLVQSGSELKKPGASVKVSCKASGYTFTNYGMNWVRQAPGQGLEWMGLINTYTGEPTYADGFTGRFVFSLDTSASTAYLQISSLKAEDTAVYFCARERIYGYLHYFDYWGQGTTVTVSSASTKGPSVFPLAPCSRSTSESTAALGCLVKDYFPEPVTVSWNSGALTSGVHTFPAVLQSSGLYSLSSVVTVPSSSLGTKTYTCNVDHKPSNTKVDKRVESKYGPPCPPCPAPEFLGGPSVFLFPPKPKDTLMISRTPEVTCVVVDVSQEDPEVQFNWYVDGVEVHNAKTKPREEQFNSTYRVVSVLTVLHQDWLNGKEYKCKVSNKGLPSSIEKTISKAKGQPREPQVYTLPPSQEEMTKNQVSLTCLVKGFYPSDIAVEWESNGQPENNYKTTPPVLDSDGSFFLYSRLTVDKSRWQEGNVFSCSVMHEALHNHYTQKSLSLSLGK
light: DVQMTQSPSSLSASVGDRVTITCRASQSVDYDGDSYMNWYQQKPGKAPKLLIYAASNLESGVPSRFSGSGSGTDFTLTISSLQPEDFATYYCQQSNEDPRTFGGGTKLEIKRTVAAPSVFIFPPSDEQLKSGTASVVCLLNNFYPREAKVQWKVDNALQSGNSQESVTEQDSKDSTYSLSSTLTLSKADYEKHKVYACEVTHQGLSSPVTKSFNRGEC
B14: h14D12.E humanized IgG4 (S228P) kappa (antibody, V domains shown)
VH: B10 VH with A76V, F95Y
VL: DVQMTQSPSSLSASVGDRVTITCRASQSVDYDGDSYMNWYQQKPGKAPKLLIYAASNLESGVPSRFSGSGSGTDFTLTISSLQPEDFATYYCQQSNEDPRTFGGGTKLEIKR
B15: h14D12.G humanized IgG4 (S228P) kappa (antibody)
heavy: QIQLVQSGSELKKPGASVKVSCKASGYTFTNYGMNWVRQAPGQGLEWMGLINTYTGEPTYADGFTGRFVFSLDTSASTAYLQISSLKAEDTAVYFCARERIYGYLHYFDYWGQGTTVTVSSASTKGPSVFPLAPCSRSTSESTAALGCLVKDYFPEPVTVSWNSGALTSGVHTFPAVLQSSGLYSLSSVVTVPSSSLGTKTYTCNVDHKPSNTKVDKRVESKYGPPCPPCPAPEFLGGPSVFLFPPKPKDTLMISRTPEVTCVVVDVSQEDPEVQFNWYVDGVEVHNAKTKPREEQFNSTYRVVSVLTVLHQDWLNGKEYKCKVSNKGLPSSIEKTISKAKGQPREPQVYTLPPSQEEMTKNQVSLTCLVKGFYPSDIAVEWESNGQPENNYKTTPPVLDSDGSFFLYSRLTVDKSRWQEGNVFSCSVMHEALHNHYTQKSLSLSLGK
light: B13 light with V2I
B16: h13H11.B humanized IgG4 (S228P) kappa (antibody, V domains shown)
VH: QIQLVQSGAEVKKPGASVKVSCKASGYTFENFGMNWVRQAPGQRLEWMGWINTYTGEATYADKFQGRVTFTLDTSASTAYMELSSLRSEDTAVYFCARDGGFRHFDVWGQGTTVTVSS
VL: ETQVTQSPSSLSASVGDRVTITCQTSTDIDDDMNWYQQKPGKAPKLLISEGNTLRPGVPSRFSSSGYGTDFTFTISSLQPEDIATYYCLQSDNLPLTFGGGTKLEIKR
B17: h13H11.E humanized IgG4 (S228P) kappa (antibody, V domains shown)
VH: B16 VH with F70I, F95Y
VL: B16 VL with E1D, D30S, D31N, D32Y, Y67S
B18: h16E10.D humanized IgG4 (S228P) kappa (antibody)
heavy: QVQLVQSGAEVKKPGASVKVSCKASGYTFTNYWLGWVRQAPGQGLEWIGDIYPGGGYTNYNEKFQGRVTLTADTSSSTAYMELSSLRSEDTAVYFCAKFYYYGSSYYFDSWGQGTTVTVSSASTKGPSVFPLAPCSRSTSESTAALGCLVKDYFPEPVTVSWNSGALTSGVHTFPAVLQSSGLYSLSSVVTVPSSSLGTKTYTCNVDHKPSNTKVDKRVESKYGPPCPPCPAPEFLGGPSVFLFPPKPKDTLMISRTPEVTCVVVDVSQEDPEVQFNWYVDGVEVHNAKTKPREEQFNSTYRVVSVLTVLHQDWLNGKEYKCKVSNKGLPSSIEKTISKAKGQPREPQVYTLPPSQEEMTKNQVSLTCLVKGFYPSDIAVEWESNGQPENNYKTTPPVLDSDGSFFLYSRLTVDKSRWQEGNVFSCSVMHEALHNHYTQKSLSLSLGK
light: DIVLTQSPLSLPVTPGEPASISCRSSQSLLNSGNQENYLAWYLQKPGQSPQLLIYGASTRESGVPDRFSGSGSGTDFTLKISRVEAEDVGVYYCQNDHSYPLTFGGGTKLEIKRTVAAPSVFIFPPSDEQLKSGTASVVCLLNNFYPREAKVQWKVDNALQSGNSQESVTEQDSKDSTYSLSSTLTLSKADYEKHKVYACEVTHQGLSSPVTKSFNRGEC
B19: h16E10.G humanized IgG4 (S228P) kappa (antibody)
heavy: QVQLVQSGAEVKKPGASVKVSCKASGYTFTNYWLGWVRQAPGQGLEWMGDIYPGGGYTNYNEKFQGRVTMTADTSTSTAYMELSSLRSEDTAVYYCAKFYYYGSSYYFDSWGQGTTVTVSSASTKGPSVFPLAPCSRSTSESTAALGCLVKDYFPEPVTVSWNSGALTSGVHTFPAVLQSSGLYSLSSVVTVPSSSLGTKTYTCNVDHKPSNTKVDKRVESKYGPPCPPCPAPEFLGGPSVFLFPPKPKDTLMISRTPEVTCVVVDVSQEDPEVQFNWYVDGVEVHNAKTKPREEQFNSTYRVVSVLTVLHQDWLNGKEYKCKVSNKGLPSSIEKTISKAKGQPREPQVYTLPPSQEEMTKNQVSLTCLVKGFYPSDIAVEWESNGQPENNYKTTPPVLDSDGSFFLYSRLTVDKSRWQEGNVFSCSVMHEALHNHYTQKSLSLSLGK
light: B18 light with L4M
B20: h16E10.F humanized IgG4 (S228P) kappa (antibody)
heavy: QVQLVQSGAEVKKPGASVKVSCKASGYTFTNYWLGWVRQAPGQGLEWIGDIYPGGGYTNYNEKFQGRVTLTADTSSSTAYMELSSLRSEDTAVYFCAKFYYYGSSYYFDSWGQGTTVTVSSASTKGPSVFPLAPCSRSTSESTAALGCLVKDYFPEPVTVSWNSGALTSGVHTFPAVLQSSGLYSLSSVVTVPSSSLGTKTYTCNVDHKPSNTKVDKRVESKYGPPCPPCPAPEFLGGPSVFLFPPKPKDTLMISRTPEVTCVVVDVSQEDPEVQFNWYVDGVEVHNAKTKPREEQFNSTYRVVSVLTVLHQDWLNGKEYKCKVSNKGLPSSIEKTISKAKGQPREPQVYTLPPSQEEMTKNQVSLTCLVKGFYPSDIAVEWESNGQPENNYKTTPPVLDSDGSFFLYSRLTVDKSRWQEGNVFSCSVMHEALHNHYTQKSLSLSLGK
light: B18 light with L4M
B21: h16E10.E humanized IgG4 (S228P) kappa (antibody)
heavy: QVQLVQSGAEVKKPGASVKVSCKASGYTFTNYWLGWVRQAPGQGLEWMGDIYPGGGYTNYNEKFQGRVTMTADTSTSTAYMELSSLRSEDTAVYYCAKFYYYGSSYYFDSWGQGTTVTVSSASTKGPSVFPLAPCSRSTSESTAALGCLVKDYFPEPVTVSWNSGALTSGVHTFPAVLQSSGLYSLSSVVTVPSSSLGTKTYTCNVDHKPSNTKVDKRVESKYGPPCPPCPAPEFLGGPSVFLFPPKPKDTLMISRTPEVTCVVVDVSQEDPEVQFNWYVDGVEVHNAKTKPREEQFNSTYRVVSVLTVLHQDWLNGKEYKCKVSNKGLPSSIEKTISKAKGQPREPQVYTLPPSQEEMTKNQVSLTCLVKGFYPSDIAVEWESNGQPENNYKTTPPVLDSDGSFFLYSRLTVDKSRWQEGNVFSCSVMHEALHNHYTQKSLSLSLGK
light: B18 light
B22: h14D12.F humanized IgG4 (S228P) kappa (antibody, V domains shown)
VH: B11 VH
VL: B14 VL
B23: h14D12.H humanized IgG4 (S228P) kappa (antibody, V domains shown)
VH: B11 VH with M70F, T76A, Y95F
VL: B14 VL with V2I

Biological target: T1, Cynomolgus Monkey VSIG4-L-His
Experiment: BLI, IgG on AHC sensor, antigen 100 nM
Procedure: (§1) The binding affinity of chimeric antibodies was determined by biolayer interferometry (BLI), using a ForteBio Octet® Red384 system. […] Biosensors were rehydrated prior to the assay in kinetics buffer for 10 minutes and then equilibrated in kinetics buffer for 60 seconds. Antibody was then immobilized for 300 seconds followed by a 120 second baseline wash in fresh kinetics buffer, 300 second analyte association, and 300 second dissociation in the same buffer wells as the baseline wash step. All assay steps occurred at 30° C. with an acquisition rate of 5.0 Hz
(§2) The binding affinity of humanized antibodies and the parental chimeric antibodies was determined by biolayer interferometry (BLI), using a ForteBio Octet® Red384 system, as described above.

In order of rising “KD relative to parental chimera” value:
1. B1  0.3 fold
2. B19  0.4 fold
3. B5  0.5 fold
4. B4  0.6 fold
5. B3  0.7 fold
6. B6  0.7 fold
7. B7  0.7 fold
8. B9  0.7 fold
9. B8  0.9 fold
10. B14  0.9 fold
11. B16  0.9 fold
12. B13  1 fold
13. B20  1 fold
14. B22  1 fold
15. B2  1.1 fold
16. B15  1.1 fold
17. B17  1.1 fold
18. B18  1.1 fold
19. B10  1.2 fold
20. B23  1.2 fold
21. B11  1.3 fold
22. B21  1.3 fold
23. B12  1.5 fold

biological target: T2, Human VSIG4-L-His; experiment: BLI, IgG on AHC sensor, antigen 100 nM
Procedure: as §1, §2

In order of falling “KD relative to parental chimera” value:
1. B16  2.5 fold
2. B2  1.7 fold
3. B12  1.4 fold
4. B17  1.4 fold
5. B10  1.1 fold
6. B23  1.1 fold
7. B8  1 fold
8. B11  1 fold
9. B13  1 fold
10. B15  1 fold
11. B14  0.9 fold
12. B19  0.9 fold
13. B7  0.8 fold
14. B9  0.8 fold
15. B21  0.8 fold
16. B22  0.8 fold
17. B3  0.7 fold
18. B20  0.7 fold
19. B4  0.6 fold
20. B5  0.6 fold
21. B6  0.6 fold
22. B18  0.6 fold
23. B1  0.5 fold
